The results in this text go back to doi:10.1101/2024.12.10.627789.

The test concerns the target CAM1. The test can be described thus: ITC.

The substance CBD peptide of eEF2K gave a Kd of 255 nM.
